Data: patent US20190100563A1 (UNIVERSITY COURT OF THE UNIVERSITY OF EDINBURGH, published 2019)

Key:
[1] = biological target: Human complement factor H purified from plasma (human, UniProt P08603 19-1231); test: cell-based or functional assay
[2] = biological target: Recombinant human CFH, wild-type sequence, from Pichia pastoris (human, UniProt P08603 19-1231); test: cell-based or functional assay
[3] = biological target: Human C3b (plasma-purified) (human, UniProt P01024 23-667; P01024 749-1663); test: SPR, amine-coupled C3 fragments on C1 chip
[4] = biological target: Human C3c (plasma-purified) (human, UniProt P01024 23-667; P01024 749-954; P01024 1321-1663); test: SPR, amine-coupled C3 fragments on C1 chip
[5] = biological target: T1, Human C3d (plasma-purified) (human, UniProt P01024 1002-1303); test: SPR, amine-coupled C3 fragments on C1 chip
T1 construct: domain: TED; also called TED of C3b
T1 sequence (P01024 1002-1303 limits assumed): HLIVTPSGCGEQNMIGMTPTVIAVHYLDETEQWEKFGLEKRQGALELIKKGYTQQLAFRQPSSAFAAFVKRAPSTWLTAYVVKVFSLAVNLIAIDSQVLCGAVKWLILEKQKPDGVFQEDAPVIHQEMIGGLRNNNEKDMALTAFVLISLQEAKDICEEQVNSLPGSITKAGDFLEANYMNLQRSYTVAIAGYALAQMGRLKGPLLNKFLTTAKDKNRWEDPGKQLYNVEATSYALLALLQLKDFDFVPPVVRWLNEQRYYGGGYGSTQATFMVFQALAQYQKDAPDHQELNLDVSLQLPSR

Human C3b (plasma-purified), sequence (P01024 23-667 limits assumed, chain 1 of 2): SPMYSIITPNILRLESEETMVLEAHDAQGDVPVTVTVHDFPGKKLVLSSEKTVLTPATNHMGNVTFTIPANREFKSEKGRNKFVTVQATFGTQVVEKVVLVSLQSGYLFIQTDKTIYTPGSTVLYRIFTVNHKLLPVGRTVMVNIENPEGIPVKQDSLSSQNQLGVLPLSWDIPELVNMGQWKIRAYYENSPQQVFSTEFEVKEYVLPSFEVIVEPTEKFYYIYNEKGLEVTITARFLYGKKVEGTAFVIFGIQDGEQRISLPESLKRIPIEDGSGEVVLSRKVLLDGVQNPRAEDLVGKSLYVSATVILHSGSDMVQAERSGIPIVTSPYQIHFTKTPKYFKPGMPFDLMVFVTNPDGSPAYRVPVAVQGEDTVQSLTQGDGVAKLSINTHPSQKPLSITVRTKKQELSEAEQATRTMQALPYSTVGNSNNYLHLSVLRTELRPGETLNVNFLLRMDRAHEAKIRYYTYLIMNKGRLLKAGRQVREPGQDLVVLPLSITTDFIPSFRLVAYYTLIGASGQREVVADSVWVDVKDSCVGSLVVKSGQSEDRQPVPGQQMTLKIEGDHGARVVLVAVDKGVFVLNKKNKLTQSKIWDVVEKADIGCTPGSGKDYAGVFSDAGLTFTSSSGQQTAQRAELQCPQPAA
Human C3b (plasma-purified), sequence (P01024 749-1663 limits assumed, chain 2 of 2): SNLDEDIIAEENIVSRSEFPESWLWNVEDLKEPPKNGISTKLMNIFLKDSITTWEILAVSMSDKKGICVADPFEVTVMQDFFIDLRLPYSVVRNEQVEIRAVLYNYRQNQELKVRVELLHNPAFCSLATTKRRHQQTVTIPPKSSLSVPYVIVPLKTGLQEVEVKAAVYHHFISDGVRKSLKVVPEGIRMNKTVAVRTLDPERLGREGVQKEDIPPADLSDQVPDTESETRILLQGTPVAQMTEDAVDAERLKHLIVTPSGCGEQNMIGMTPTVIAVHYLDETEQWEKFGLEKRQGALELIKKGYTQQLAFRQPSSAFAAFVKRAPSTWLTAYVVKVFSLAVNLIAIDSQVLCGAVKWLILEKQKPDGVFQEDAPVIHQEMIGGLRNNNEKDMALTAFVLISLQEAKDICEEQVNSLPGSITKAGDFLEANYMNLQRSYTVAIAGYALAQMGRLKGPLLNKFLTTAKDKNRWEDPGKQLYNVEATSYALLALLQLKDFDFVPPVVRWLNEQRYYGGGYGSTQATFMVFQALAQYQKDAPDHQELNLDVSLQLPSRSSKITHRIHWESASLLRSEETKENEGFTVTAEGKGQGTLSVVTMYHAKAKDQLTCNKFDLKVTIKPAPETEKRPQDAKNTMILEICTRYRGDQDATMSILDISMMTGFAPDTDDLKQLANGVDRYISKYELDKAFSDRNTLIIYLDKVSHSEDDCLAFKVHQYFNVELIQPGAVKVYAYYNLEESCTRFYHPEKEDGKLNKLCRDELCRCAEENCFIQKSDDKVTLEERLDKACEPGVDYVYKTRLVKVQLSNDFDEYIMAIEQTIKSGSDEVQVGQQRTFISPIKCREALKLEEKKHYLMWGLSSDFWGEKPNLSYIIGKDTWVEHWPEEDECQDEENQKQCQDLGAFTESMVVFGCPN
Human C3c (plasma-purified), sequence (P01024 23-667, chain 1 of 3): as the sequence (P01024 23-667 limits assumed, chain 1 of 2) above
Human C3c (plasma-purified), sequence (P01024 749-954, chain 2 of 3): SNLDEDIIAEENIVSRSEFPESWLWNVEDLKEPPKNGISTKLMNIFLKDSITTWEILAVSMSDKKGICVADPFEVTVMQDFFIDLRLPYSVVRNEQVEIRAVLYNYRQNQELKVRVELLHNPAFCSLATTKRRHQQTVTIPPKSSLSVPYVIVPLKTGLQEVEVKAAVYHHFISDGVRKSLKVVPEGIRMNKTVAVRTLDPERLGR
Human C3c (plasma-purified), sequence (P01024 1321-1663, chain 3 of 3): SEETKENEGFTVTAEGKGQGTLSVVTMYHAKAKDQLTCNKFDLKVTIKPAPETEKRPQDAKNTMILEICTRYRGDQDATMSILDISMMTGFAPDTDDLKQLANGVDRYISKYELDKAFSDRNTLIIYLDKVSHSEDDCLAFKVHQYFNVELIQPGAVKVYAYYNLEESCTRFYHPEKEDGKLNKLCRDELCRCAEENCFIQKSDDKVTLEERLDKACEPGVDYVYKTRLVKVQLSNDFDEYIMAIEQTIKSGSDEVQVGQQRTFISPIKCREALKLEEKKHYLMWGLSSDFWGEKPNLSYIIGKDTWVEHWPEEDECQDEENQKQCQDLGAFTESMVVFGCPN
Human complement factor H purified from plasma, sequence (P08603 19-1231 limits assumed): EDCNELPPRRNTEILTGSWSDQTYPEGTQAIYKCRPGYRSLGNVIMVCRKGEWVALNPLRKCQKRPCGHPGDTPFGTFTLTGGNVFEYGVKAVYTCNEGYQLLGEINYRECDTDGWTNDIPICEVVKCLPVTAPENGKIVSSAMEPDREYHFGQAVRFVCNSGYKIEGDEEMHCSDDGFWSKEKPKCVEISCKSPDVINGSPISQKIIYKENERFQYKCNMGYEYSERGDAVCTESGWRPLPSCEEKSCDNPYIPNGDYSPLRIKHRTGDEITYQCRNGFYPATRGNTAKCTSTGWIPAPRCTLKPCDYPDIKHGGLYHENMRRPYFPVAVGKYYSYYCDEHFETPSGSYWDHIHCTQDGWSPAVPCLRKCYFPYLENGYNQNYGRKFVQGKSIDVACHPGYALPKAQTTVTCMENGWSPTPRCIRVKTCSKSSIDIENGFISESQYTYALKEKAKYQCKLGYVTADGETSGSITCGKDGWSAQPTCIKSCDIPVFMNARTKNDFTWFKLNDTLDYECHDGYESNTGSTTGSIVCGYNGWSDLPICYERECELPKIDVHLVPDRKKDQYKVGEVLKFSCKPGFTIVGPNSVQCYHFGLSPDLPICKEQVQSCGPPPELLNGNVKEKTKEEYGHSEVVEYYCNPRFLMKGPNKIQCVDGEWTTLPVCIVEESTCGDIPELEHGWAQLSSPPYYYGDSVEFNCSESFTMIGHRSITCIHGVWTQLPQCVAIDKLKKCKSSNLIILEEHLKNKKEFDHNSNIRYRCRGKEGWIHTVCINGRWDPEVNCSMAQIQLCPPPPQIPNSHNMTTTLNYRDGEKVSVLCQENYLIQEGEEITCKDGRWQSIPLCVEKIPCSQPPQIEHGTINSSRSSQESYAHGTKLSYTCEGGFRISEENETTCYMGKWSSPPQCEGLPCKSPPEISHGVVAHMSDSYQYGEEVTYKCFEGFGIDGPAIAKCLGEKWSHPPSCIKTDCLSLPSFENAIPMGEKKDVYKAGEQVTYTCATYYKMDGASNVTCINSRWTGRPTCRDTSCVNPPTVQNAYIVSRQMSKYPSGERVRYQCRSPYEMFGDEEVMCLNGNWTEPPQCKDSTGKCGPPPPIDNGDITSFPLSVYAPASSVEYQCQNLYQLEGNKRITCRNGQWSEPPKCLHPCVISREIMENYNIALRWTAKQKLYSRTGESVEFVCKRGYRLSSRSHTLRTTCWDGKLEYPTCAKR
Recombinant human CFH, wild-type sequence, from Pichia pastoris, sequence (P08603 19-1231 limits assumed): as above

B1: PspCN (cleaved, PspC residues 37-140, S. pneumoniae strain D39) (other)
chain: ATENEGSTQAATSSNMAKTEHRKAAKQVVDEYIEKMLREIQLDRRKHTQNVALNIKLSAIKTKYLRELNVLEEKSKDELPSEIKAKLDAAFEKFKKDTLKPGEK
- inhibition of haemolysis of PNH-like erythrocytes by acidified normal human serum, IC50 [1]: 28 nM
- rate of decay acceleration of C3b.Bb (SPR-based assay) [2]: ~10 fold
- binding result [3]: no binding
- binding result [4]: no binding
- binding result [5]: no binding
